We go through 3 substances from US20200033338A1.

Assay [1] concerns the target Torpedo 39MIR peptide-intein-chitin-binding domain (IChBD) fusion protein (Torpedo). The assay is described as follows: Western blot of peptide-IChBD fusion (FIG. 5).
The target of assay [2] is Torpedo 39MIR single mutant A70D, IChBD fusion (Torpedo). The assay is described as follows: Western blot of peptide-IChBD fusion (FIG. 5).
In assay [3] the target is Torpedo 39MIR single mutant D111Q, IChBD fusion (Torpedo). The assay is described as follows: Western blot of peptide-IChBD fusion (FIG. 5). (A western blot detects proteins with antibodies after separation by electrophoresis.)
In assay [4] the target is Torpedo 39MIR single mutant I75V, IChBD fusion (Torpedo). The assay is described as follows: Western blot of peptide-IChBD fusion (FIG. 5).
Assay [5] addresses Torpedo 39MIR single mutant K115H, IChBD fusion (Torpedo). The assay is described as follows: Western blot of peptide-IChBD fusion (FIG. 5).
Assay [6] concerns the target Torpedo 39MIR single mutant L12F, IChBD fusion (Torpedo). The assay is described as follows: Western blot of peptide-IChBD fusion (FIG. 5).
For assay [7], the target named is Torpedo 39MIR single mutant N10K, IChBD fusion (Torpedo). The assay is described as follows: Western blot of peptide-IChBD fusion (FIG. 5).
Assay [8] concerns the target Torpedo 39MIR single mutant R66K, IChBD fusion (Torpedo). The assay is described as follows: Western blot of peptide-IChBD fusion (FIG. 5).
For assay [9], the target named is Torpedo 39MIR single mutant R79H, IChBD fusion (Torpedo). The assay is described as follows: Western blot of peptide-IChBD fusion (FIG. 5).
Assay [10] deals with K10N/D70A human 39MIR double mutant, IChBD fusion (human). The assay is described as follows: Western blot of peptide-IChBD fusion (FIG. 7).
For assay [11], the target named is K10N/D70A/V75I/Q111D human 39MIR quadruple mutant, IChBD fusion (human). The assay is described as follows: Western blot of peptide-IChBD fusion (FIG. 7).
Assay [12] has as its target K10N/Q111D human 39MIR double mutant, IChBD fusion (human). The assay is described as follows: Western blot of peptide-IChBD fusion (FIG. 7).
The target in assay [13] is K10N/V75I human 39MIR double mutant, IChBD fusion (human). The assay is described as follows: Western blot of peptide-IChBD fusion (FIG. 7).
For assay [14], the target named is K10N/V75I/Q111D human 39MIR triple mutant, IChBD fusion (human). The assay is described as follows: Western blot of peptide-IChBD fusion (FIG. 7).
Assay [15] concerns the target Torpedo 39MIR peptide-intein-chitin-binding domain (IChBD) fusion protein (Torpedo). The assay is described as follows: Western blot of peptide-IChBD fusion (FIG. 7).
The target of assay [16] is V75I/Q111D human 39MIR double mutant, IChBD fusion (human). The assay is described as follows: Western blot of peptide-IChBD fusion (FIG. 7).
Assay [17] concerns the target Torpedo 39MIR peptide-intein-chitin-binding domain (IChBD) fusion protein (Torpedo). The assay is described as follows: Western blot of peptide-IChBD fusion (Table 3).
The target of assay [18] is K10N human 39MIR mutant, IChBD fusion (human). The assay is described as follows: Western blot.
The target in assay [19] is Q111D human 39MIR mutant, IChBD fusion (human). The assay is described as follows: Western blot.
Assay [20] addresses V75I human 39MIR mutant, IChBD fusion (human). The assay is described as follows: Western blot.
Assay [21] deals with Torpedo 39MIR peptide-intein-chitin-binding domain (IChBD) fusion protein (Torpedo). The assay is described as follows: Western blot (FIG. 3).
Assay [22] deals with K10N/D70A/V75I/Q111D human 39MIR quadruple mutant, IChBD fusion (human). The assay is described as follows: Western blot (FIG. 7).
Assay [23] concerns the target K10N/V75I/Q111D human 39MIR triple mutant, IChBD fusion (human). The assay is described as follows: Western blot (FIG. 7).
For assay [24], the target named is Human 39MIR peptide-intein-chitin-binding domain (IChBD) fusion protein (human). The assay is described as follows: Western blot of peptide-IChBD fusion (FIG. 7).
Assay [25] addresses D70A human 39MIR mutant, IChBD fusion (human). The assay is described as follows: Western blot of peptide-IChBD fusion (Table 3).
For assay [26], the target named is Human 39MIR peptide-intein-chitin-binding domain (IChBD) fusion protein (human). The assay is described as follows: Western blot of peptide-IChBD fusion (Table 3).
Assay [27] has as its target K10N human 39MIR mutant, IChBD fusion (human). The assay is described as follows: Western blot of peptide-IChBD fusion (Table 3).
The target of assay [28] is Q111D human 39MIR mutant, IChBD fusion (human). The assay is described as follows: Western blot of peptide-IChBD fusion (Table 3).
Assay [29] concerns the target V75I human 39MIR mutant, IChBD fusion (human). The assay is described as follows: Western blot of peptide-IChBD fusion (Table 3).

Sequence of K10N/V75I human 39MIR double mutant, IChBD fusion (human) (chain, as listed by the source K10N V75I K10N V75I): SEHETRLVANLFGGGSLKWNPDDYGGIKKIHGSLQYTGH
Sequence of Torpedo 39MIR single mutant R66K, IChBD fusion (Torpedo) (chain, as listed by the source R66K R66K): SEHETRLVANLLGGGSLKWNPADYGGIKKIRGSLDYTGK
Sequence of K10N/D70A human 39MIR double mutant, IChBD fusion (human) (chain, as listed by the source K10N D70A K10N D70A): as the sequence (chain, as listed by the source K10N V75I K10N V75I) above, with D22A, I27V counted along it
Sequence of K10N/Q111D human 39MIR double mutant, IChBD fusion (human) (chain, as listed by the source K10N Q111D K10N Q111D): as the sequence (chain, as listed by the source K10N V75I K10N V75I) above, with I27V, Q35D counted along it
Sequence of Torpedo 39MIR peptide-intein-chitin-binding domain (IChBD) fusion protein (Torpedo) (chain, as listed by the source): as the sequence (chain, as listed by the source R66K R66K) above, with K18R counted along it
Sequence of V75I/Q111D human 39MIR double mutant, IChBD fusion (human) (chain, as listed by the source V75I Q111D V75I Q111D): as the sequence (chain, as listed by the source K10N V75I K10N V75I) above, with N10K, Q35D counted along it
Sequence of K10N/V75I/Q111D human 39MIR triple mutant, IChBD fusion (human) (chain, as listed by the source K10N V75I Q111D K10N V75I Q111D): as the sequence (chain, as listed by the source K10N V75I K10N V75I) above, with Q35D counted along it
Sequence of Torpedo 39MIR single mutant R79H, IChBD fusion (Torpedo) (chain, as listed by the source R79H R79H): as the sequence (chain, as listed by the source R66K R66K) above, with K18R, R31H counted along it
Sequence of Torpedo 39MIR single mutant A70D, IChBD fusion (Torpedo) (chain, as listed by the source A70D A70D): as the sequence (chain, as listed by the source R66K R66K) above, with K18R, A22D counted along it
Sequence of V75I human 39MIR mutant, IChBD fusion (human) (chain, as listed by the source V75I V75I): as the sequence (chain, as listed by the source K10N V75I K10N V75I) above, with N10K counted along it
Sequence of K10N human 39MIR mutant, IChBD fusion (human) (chain, as listed by the source K10N K10N): as the sequence (chain, as listed by the source K10N V75I K10N V75I) above, with I27V counted along it
Sequence of Torpedo 39MIR single mutant L12F, IChBD fusion (Torpedo) (chain, as listed by the source L12F L12F): as the sequence (chain, as listed by the source R66K R66K) above, with L12F, K18R counted along it
Sequence of K10N/D70A/V75I/Q111D human 39MIR quadruple mutant, IChBD fusion (human) (chain, as listed by the source K10N D70A V75I Q111D K10N D70A V75I Q111D): as the sequence (chain, as listed by the source K10N V75I K10N V75I) above, with D22A, Q35D counted along it
Sequence of Q111D human 39MIR mutant, IChBD fusion (human) (chain, as listed by the source Q111D Q111D): as the sequence (chain, as listed by the source K10N V75I K10N V75I) above, with N10K, I27V, Q35D counted along it
Sequence of Torpedo 39MIR single mutant N10K, IChBD fusion (Torpedo) (chain, as listed by the source N10K N10K): as the sequence (chain, as listed by the source R66K R66K) above, with N10K, K18R counted along it
Sequence of Torpedo 39MIR single mutant D111Q, IChBD fusion (Torpedo) (chain, as listed by the source D111Q D111Q): as the sequence (chain, as listed by the source R66K R66K) above, with K18R, D35Q counted along it
Sequence of Human 39MIR peptide-intein-chitin-binding domain (IChBD) fusion protein (human) (chain, as listed by the source): as the sequence (chain, as listed by the source K10N V75I K10N V75I) above, with N10K, I27V counted along it
Sequence of Torpedo 39MIR single mutant K115H, IChBD fusion (Torpedo) (chain, as listed by the source K115H K115H): as the sequence (chain, as listed by the source R66K R66K) above, with K18R, K39H counted along it
Sequence of Torpedo 39MIR single mutant I75V, IChBD fusion (Torpedo) (chain, as listed by the source I75V I75V): as the sequence (chain, as listed by the source R66K R66K) above, with K18R, I27V counted along it
Sequence of D70A human 39MIR mutant, IChBD fusion (human) (chain, as listed by the source D70A D70A): as the sequence (chain, as listed by the source K10N V75I K10N V75I) above, with N10K, D22A, I27V counted along it

For mAb 132A (antibody), the fold-change in binding relative to Torpedo 39MIR in assay [1] came out at 1 fold; in assay [2] it was 0.2 fold; in assay [3], 0.07 fold; in assay [4] it was 0.06 fold; in assay [5], 0.4 fold; in assay [6] it was 1.1 fold. In addition, the fold-change in binding relative to Torpedo 39MIR in assay [7] is 0.03 fold; in assay [8], 1.55 fold; in [9], 1.65 fold; in assay [10], 0.16 fold; in [11], 0.99 fold; in assay [12] it was 1.07 fold. Besides, the fold-change in binding relative to Torpedo 39MIR turned out to be 1.25 fold in [13]; 2.46 fold in assay [14]; 1 fold in assay [15]; 3.34 fold in assay [16]; 1 fold in assay [17].

Take mAb 198 (antibody): the fold improvement in binding compared to the human 39MIR in [18] stood at 13 fold; in assay [19] it was 35.7 fold; in assay [20], 40 fold; in assay [22], 11 fold; in assay [23] it was 28 fold. The fold stronger binding than to the human MIR mimic in assay [21] stood at 50 fold. In addition, the fold-change in binding relative to Torpedo 39MIR in assay [1] came to 1 fold; in [2] it was 1.08 fold; in assay [3], 0.16 fold; in assay [4], 0.16 fold; in assay [5], 1.07 fold; in assay [6] it was 0.9 fold. Besides, the fold-change in binding relative to Torpedo 39MIR in assay [7] amounted to 0.82 fold; in assay [8], 1.03 fold; in assay [9] it was 0.97 fold; in assay [24] it was 0.09 fold; in assay [10], 0.72 fold; in assay [11], 0.99 fold. Further, the fold-change in binding relative to Torpedo 39MIR in [12] stood at 1.19 fold; in [13] it was 1.79 fold; in assay [14], 2.52 fold; in [15] it was 1 fold; in assay [16], 2.71 fold; in assay [25], 0.02 fold. Further, the fold-change in binding relative to Torpedo 39MIR turned out to be 0.02 fold in assay [26]; 0.23 fold in [27]; 0.59 fold in [28]; 1 fold in assay [17]; 0.65 fold in assay [29].

With mAb 35 (antibody), the fold-change in binding relative to Torpedo 39MIR was 1 fold in assay [1]; 0.93 fold in assay [2]; 1.42 fold in [6]; 0.29 fold in [7]; 0.62 fold in [8]; 1.91 fold in assay [9]. Also, the fold-change in binding relative to Torpedo 39MIR in assay [10] was 0.31 fold; in assay [11], 1.7 fold; in assay [12] it was 2.31 fold; in assay [13], 1.1 fold; in assay [14], 2.97 fold; in assay [15], 1 fold. Also, the fold-change in binding relative to Torpedo 39MIR came to 0.92 fold in assay [16]; 0.01 fold in [27]; 0.06 fold in assay [28]; 1 fold in [17]; 0.03 fold in assay [29].
